{"source": "patent US10047131B2", "about": "“Peptides and combination of peptides for use in immunotherapy against ovarian cancer and other cancers” (immatics biotechnologies GmbH, priority 2015, dated 2018)"}
{"molecular_target": "HLA-A*02:01 (Homo sapiens, UniProt P04439, D140Y/D185E/D98H/E176V/E277Q/G131W/G231S/I119V/I121R/I166T/I218V/L300P/L318F/N151K/N90K/P208A/P217A/Q86G/Q94H/R138H/R169H/T345S)", "assay": "MHC binding assay (UV-ligand exchange, ELISA of exchange yield)", "settings": "binding to HLA-A*02:01, UV-ligand exchange", "summary_of_the_method": "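ELISA of β2m retained on streptavidin-captured, 100-fold diluted complexes (HRP anti-β2m, TMB, 450 nm) gives the yield. Complexes come from UV-triggered exchange of a photocleavable placeholder peptide for the candidate, which must bind to stop complex dissociation.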"}
{"substance": "144 (YIMEPSIFNTL; listed as Homo sapiens) [compound 144]", "Peptide exchange (MHC class I binding score, peptide exchange yield)": "“+++” (≥50 = +++)"}
{"substance": "244 (SLFGGTEITI; listed as Homo sapiens) [compound 244]", "Peptide exchange (MHC class I binding score, peptide exchange yield)": "“+++” (≥50 = +++)"}
{"substance": "72 (SLLELDGINL; listed as Homo sapiens) [compound 72]", "Peptide exchange (MHC class I binding score, peptide exchange yield)": "“+++” (≥50 = +++)"}
{"substance": "277 (LLPPLESLATV; listed as Homo sapiens) [compound 277]", "Peptide exchange (MHC class I binding score, peptide exchange yield)": "“++” (≥20% = ++)"}
{"substance": "546 (VMIAGKVAVV; listed as Homo sapiens) [compound 546]", "Peptide exchange (MHC class I binding score, peptide exchange yield)": "“+++” (≥50 = +++)"}
{"substance": "437 (SMAPGLVIQAV; listed as Homo sapiens) [compound 437]", "Peptide exchange (MHC class I binding score, peptide exchange yield)": "“+++” (≥50 = +++)"}
{"substance": "474 (YLDPALELGPRNV; listed as Homo sapiens) [compound 474]", "Peptide exchange (MHC class I binding score, peptide exchange yield)": "“+++” (≥50 = +++)"}
{"substance": "333 (FLPDANSSV; listed as Homo sapiens) [compound 333]", "Peptide exchange (MHC class I binding score, peptide exchange yield)": "“++” (≥20% = ++)"}
{"substance": "223 (ALLENIALYL; listed as Homo sapiens) [compound 223]", "Peptide exchange (MHC class I binding score, peptide exchange yield)": "“+++” (≥50 = +++)"}
{"substance": "510 (KLYSVVSQL; listed as Homo sapiens) [compound 510]", "Peptide exchange (MHC class I binding score, peptide exchange yield)": "“++” (≥20% = ++)"}
{"substance": "40 (TLLVKVFSV; listed as Homo sapiens) [compound 40]", "Peptide exchange (MHC class I binding score, peptide exchange yield)": "“+++” (≥50 = +++)"}
{"substance": "376 (AMFESSQNVLL; listed as Homo sapiens) [compound 376]", "Peptide exchange (MHC class I binding score, peptide exchange yield)": "“++” (≥20% = ++)"}
{"substance": "354 (LILEGVDTV; listed as Homo sapiens) [compound 354]", "Peptide exchange (MHC class I binding score, peptide exchange yield)": "“++” (≥20% = ++)"}
{"substance": "543 (GLLPTPITQQASL; listed as Homo sapiens) [compound 543]", "Peptide exchange (MHC class I binding score, peptide exchange yield)": "“+++” (≥50 = +++)"}
{"substance": "371 (FLQAHLHTA; listed as Homo sapiens) [compound 371]", "Peptide exchange (MHC class I binding score, peptide exchange yield)": "“++++” (≥75% = ++++)"}
{"substance": "346 (LLDSKVPSV; listed as Homo sapiens) [compound 346]", "Peptide exchange (MHC class I binding score, peptide exchange yield)": "“+++” (≥50 = +++)"}
{"substance": "329 (FLVTLNNVEV; listed as Homo sapiens) [compound 329]", "Peptide exchange (MHC class I binding score, peptide exchange yield)": "“++++” (≥75% = ++++)"}
{"substance": "571 (LLLTTIPQI; listed as Homo sapiens) [compound 571]", "Peptide exchange (MHC class I binding score, peptide exchange yield)": "“+++” (≥50 = +++)"}
{"substance": "583 (ILANDGVLLAA; listed as Homo sapiens) [compound 583]", "Peptide exchange (MHC class I binding score, peptide exchange yield)": "“+++” (≥50 = +++)"}
{"substance": "481 (GLIEDYEALL; listed as Homo sapiens) [compound 481]", "Peptide exchange (MHC class I binding score, peptide exchange yield)": "“+++” (≥50 = +++)"}
{"substance": "317 (SLAALVVHV; listed as Homo sapiens) [compound 317]", "Peptide exchange (MHC class I binding score, peptide exchange yield)": "“+++” (≥50 = +++)"}
{"substance": "95 (SVIPQIQKV; listed as Homo sapiens) [compound 95]", "Peptide exchange (MHC class I binding score, peptide exchange yield)": "“+++” (≥50 = +++)"}
{"substance": "139 (SVMEVNSGIYRV; listed as Homo sapiens) [compound 139]", "Peptide exchange (MHC class I binding score, peptide exchange yield)": "“+++” (≥50 = +++)"}
{"substance": "81 (FLFSQLQYL; listed as Homo sapiens) [compound 81]", "Peptide exchange (MHC class I binding score, peptide exchange yield)": "“++” (≥20% = ++)"}
{"substance": "30 (LILDWVPYI; listed as Homo sapiens) [compound 30]", "Peptide exchange (MHC class I binding score, peptide exchange yield)": "“+++” (≥50 = +++)"}
{"substance": "140 (YMDAPKAAL; listed as Homo sapiens) [compound 140]", "Peptide exchange (MHC class I binding score, peptide exchange yield)": "“++” (≥20% = ++)"}
{"substance": "560 (ALWDIETGQQTTT; listed as Homo sapiens) [compound 560]", "Peptide exchange (MHC class I binding score, peptide exchange yield)": "“+++” (≥50 = +++)"}
{"substance": "412 (YLDDLNEGVYI; listed as Homo sapiens) [compound 412]", "Peptide exchange (MHC class I binding score, peptide exchange yield)": "“++” (≥20% = ++)"}
{"substance": "147 (SLLEAVSFL; listed as Homo sapiens) [compound 147]", "Peptide exchange (MHC class I binding score, peptide exchange yield)": "“+++” (≥50 = +++)"}
{"substance": "549 (AMLENASDIKL; listed as Homo sapiens) [compound 549]", "Peptide exchange (MHC class I binding score, peptide exchange yield)": "“+++” (≥50 = +++)"}
{"substance": "344 (YLQDQHLLLTV; listed as Homo sapiens) [compound 344]", "Peptide exchange (MHC class I binding score, peptide exchange yield)": "“+++” (≥50 = +++)"}
{"substance": "364 (LLQNEQFEL; listed as Homo sapiens) [compound 364]", "Peptide exchange (MHC class I binding score, peptide exchange yield)": "“+++” (≥50 = +++)"}
{"substance": "159 (GLVGNPLPSV; listed as Homo sapiens) [compound 159]", "Peptide exchange (MHC class I binding score, peptide exchange yield)": "“++++” (≥75% = ++++)"}
{"substance": "171 (LLLPLQILL; listed as Homo sapiens) [compound 171]", "Peptide exchange (MHC class I binding score, peptide exchange yield)": "“+++” (≥50 = +++)"}
{"substance": "42 (VLLQKIVSA; listed as Homo sapiens) [compound 42]", "Peptide exchange (MHC class I binding score, peptide exchange yield)": "“+++” (≥50 = +++)"}
{"substance": "463 (SLVESHLSDQLTL; listed as Homo sapiens) [compound 463]", "Peptide exchange (MHC class I binding score, peptide exchange yield)": "“+++” (≥50 = +++)"}
{"substance": "396 (ALLPDLPAL; listed as Homo sapiens) [compound 396]", "Peptide exchange (MHC class I binding score, peptide exchange yield)": "“+++” (≥50 = +++)"}
{"substance": "439 (YLLQEIYGI; listed as Homo sapiens) [compound 439]", "Peptide exchange (MHC class I binding score, peptide exchange yield)": "“+++” (≥50 = +++)"}
{"substance": "398 (KLLEEDGTIITL; listed as Homo sapiens) [compound 398]", "Peptide exchange (MHC class I binding score, peptide exchange yield)": "“++” (≥20% = ++)"}
{"substance": "476 (ALMERTGYSMV; listed as Homo sapiens) [compound 476]", "Peptide exchange (MHC class I binding score, peptide exchange yield)": "“+++” (≥50 = +++)"}
{"substance": "426 (RLADKSVLV; listed as Homo sapiens) [compound 426]", "Peptide exchange (MHC class I binding score, peptide exchange yield)": "“+++” (≥50 = +++)"}
{"substance": "588 (SLLPLSHLV; listed as Homo sapiens) [compound 588]", "Peptide exchange (MHC class I binding score, peptide exchange yield)": "“+++” (≥50 = +++)"}
{"substance": "80 (FLYDNLVESL; listed as Homo sapiens) [compound 80]", "Peptide exchange (MHC class I binding score, peptide exchange yield)": "“++” (≥20% = ++)"}
{"substance": "552 (GLLDLPFRVGV; listed as Homo sapiens) [compound 552]", "Peptide exchange (MHC class I binding score, peptide exchange yield)": "“++++” (≥75% = ++++)"}
{"substance": "545 (LLADLLHNV; listed as Homo sapiens) [compound 545]", "Peptide exchange (MHC class I binding score, peptide exchange yield)": "“+++” (≥50 = +++)"}
{"substance": "16 (VLFQGQASL; listed as Homo sapiens) [compound 16]", "Peptide exchange (MHC class I binding score, peptide exchange yield)": "“+++” (≥50 = +++)"}
{"substance": "373 (SLLEDKGLAEV; listed as Homo sapiens) [compound 373]", "Peptide exchange (MHC class I binding score, peptide exchange yield)": "“++” (≥20% = ++)"}
{"substance": "517 (LLMPIPEGLTL; listed as Homo sapiens) [compound 517]", "Peptide exchange (MHC class I binding score, peptide exchange yield)": "“+++” (≥50 = +++)"}
{"substance": "270 (LLLDEEGTFSL; listed as Homo sapiens) [compound 270]", "Peptide exchange (MHC class I binding score, peptide exchange yield)": "“++” (≥20% = ++)"}
{"substance": "408 (VLDDSIYLV; listed as Homo sapiens) [compound 408]", "Peptide exchange (MHC class I binding score, peptide exchange yield)": "“++” (≥20% = ++)"}
